The source of these data is PMC5548138 (Neuron, 2017).

The assay has as its target recombinant bovine NX-1α protein (btNX-1α), ectodomain L1-L6 his6 (bovine, UniProt Q28146 31-1454). Kind of assay: co-IP.

Sequence of recombinant bovine NX-1α protein (btNX-1α), ectodomain L1-L6 his6 (Q28146 31-1454): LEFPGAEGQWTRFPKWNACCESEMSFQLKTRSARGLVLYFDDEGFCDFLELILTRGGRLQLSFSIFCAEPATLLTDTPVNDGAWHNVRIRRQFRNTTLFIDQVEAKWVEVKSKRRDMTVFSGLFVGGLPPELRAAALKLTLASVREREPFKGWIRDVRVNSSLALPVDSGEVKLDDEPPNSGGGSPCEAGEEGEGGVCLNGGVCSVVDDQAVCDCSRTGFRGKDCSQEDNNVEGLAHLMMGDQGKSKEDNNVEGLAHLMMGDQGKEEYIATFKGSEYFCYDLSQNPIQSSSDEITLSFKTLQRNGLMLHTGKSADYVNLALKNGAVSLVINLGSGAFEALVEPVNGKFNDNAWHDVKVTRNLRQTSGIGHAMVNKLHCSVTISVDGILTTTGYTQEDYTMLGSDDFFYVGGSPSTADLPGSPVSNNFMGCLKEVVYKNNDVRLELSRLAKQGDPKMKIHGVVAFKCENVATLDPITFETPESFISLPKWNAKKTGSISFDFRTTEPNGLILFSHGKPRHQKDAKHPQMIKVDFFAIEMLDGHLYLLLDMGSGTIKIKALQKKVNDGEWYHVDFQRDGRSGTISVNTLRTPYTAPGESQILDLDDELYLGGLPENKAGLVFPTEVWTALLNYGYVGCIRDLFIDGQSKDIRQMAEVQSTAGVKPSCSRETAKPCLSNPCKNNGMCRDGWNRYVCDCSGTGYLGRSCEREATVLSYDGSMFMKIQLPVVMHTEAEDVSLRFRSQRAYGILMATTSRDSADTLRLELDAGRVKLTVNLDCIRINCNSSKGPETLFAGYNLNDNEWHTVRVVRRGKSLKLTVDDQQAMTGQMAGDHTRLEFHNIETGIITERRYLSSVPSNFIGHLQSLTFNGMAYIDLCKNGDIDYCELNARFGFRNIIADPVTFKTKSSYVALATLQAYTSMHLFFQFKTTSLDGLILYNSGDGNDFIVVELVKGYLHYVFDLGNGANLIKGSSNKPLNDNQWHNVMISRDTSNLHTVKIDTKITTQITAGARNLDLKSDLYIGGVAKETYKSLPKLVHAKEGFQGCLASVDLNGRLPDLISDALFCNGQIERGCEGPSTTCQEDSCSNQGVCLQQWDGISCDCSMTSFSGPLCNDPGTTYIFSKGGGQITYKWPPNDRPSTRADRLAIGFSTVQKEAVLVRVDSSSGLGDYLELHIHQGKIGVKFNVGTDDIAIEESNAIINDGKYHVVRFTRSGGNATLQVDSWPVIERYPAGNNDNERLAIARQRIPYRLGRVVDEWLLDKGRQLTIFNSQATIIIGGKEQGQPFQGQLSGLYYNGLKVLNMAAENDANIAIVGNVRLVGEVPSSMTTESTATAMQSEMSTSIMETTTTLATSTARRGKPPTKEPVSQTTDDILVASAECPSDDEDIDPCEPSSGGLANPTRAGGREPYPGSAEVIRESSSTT

B1: HA-tagged α2δ-3 (mouse) (natural protein, UniProt Q9Z1L5 34-1091, looked up)
chain: EQQIPLSVVKLWASAFGGEIKSIAAKYSGSQLLQKKYKEYEKDVAIEEIDGLQLVKKLAKIMEEMFHKKSEAVRRLVEAAEEAHLKHEFDADLQYEYFNAVLINERDKDGNFLELGKEFILAPNDHFNNLPVNISLSDVQVPTNMYNKDPAIVNGVYWSESLNKVFVDNFDRDPSLIWQYFGSAKGFFRQYPGIKWEPDENGVIAFDCRNRKWYIQAATSPKDVVILVDVSGSMKGLRLTIAKQTVSSILDTLGDDDFFNIITYNEELHYVEPCLNGTLVQADRTNKEHFREHLDKLFAKGIGMLDIALNEAFNILSDFNHTGQGSICSQAIMLITDGAVDTYDTIFAKYNWPDRKVRIFTYLIGREAAFADNLKWMACANKGFFTQISTLADVQENVMEYLHVLSRPKVIDQEHDVVWTEAYIDSTLPQAQKLADDQGLVLMTTVAMPVFSKQNETRSKGILLGVVGTDVPVKELLKTIPKYKLGIHGYAFAITNNGYILTHPELRPLYEEGKKRRKPNYSSVDLSEVEWEDRDDVLRNAMVNRKTGKFSMEVKKTVDKGKRVLVMTNDYYYTDIKGTPFSLGVALSRGHGKYFFRGNVTIEEGLHDLEHPDVSLADEWSYCNTDLHPEHRHLSQLEAIKLYLKGKEPLLQCDKELIQEVLFDAVVSAPIEAYWTSLALNKSENSDKGVEVAFLGTRTGLSRINLFVGAEQLTNQDFLKAGDKENIFNADHFPLWYRRAAEQIAGSFVYSIPFSTGTVNKSNVVTASTSIQLLDERKSPVVAAVGIQMKLEFFQRKFWTASRQCASLDGKCSISCDDETVNCYLIDNNGFILVSEDYTQTGDFFGEVEGAVMNKLLTMGSFKRITLYDYQAMCRANKESSDSAHGLLDPYKAFLSAAKWIMTELVLFLVEFNLCSWWHSDMTAKAQKLKQTLEPCDTEYPAFVSERTIKETTGNIACEDCSKSFVIQQIPSSNLFMVVVDSSCLCESVAPITMAPIEIRYNESLKCERLKAQKIRRRPESCHGFHPEENARECGGASSLQAQAALLLLPLVSSLFSR
One may read the Kd as the equilibrium constant for the complex coming apart. In the case of B1, the Kd is approximately 40 nM.
